Consider five proteins from US20050214899.

One data set has as its target T1, MQDYLT.
T1 chain: MQDYLT

In a further data set the target is T2, MADYLT.
T2 chain: MADYLT

For a further data set, the target named is T3, MADY.
T3 chain: MADY

The target in the next data set is T4, MADWLTFQKKHI
T4 chain: MADWLTFQKKHI

A further data set concerns the target T5, MQDWLTFQKKHI
T5 chain: MQDWLTFQKKHI

B1: MetAP-GTG (protein)
chain: AISIKTPEDIEKMRVAGRLAAEVLEMIEPYVKPGVSTGELDRICNDYIVNEQHAVSACLGYHGYPKSVCISINEVVCHGIPDDAKLLKDGDIVNIDVTVIKDGFHGDTSKMFIVGKPTIMGERLCRITQESLYLALRMVKPGINLREIGAAIQKFVEAEGFSVVREGCGHGIGRGFHEEPQVLHYDSRETNVVLKPGMTFTIEPTVNAGKKEIRTMKDGWTVKTKDRSLSAGYEHTIVVTDNGCEILTLRKDDTIPAIISHDE
For the protein B1, the Specific activity (unit/mg) with MQDYLT turned out to be 0.23 unit/mg; with MADYLT, 2.5 unit/mg; in the data set with MADY, 1.68 unit/mg; with MADWLTFQKKHI, 9.8 unit/mg; with MQDWLTFQKKHI it was 4.24 unit/mg. Also, in the data set with MQDWLTFQKKHI, the “specific activity relative to that for MADWLTFQKKHI” value was “The specific activity of MetAP-GTG on the dodecapeptide MQDWLTFQKKHI is 43% of that for MADWLTFQKKHI”.

B2: MetAP-YMQ (wild type E. coli methionine aminopeptidase) (protein)
chain: AISIKTPEDIEKMRVAGRLAAEVLEMIEPYVKPGVSTGELDRICNDYIVNEQHAVSACLGYHGYPKSVCISINEVVCHGIPDDAKLLKDGDIVNIDVTVIKDGFHGDTSKMFIVGKPTIMGERLCRITQESLYLALRMVKPGINLREIGAAIQKFVEAEGFSVVREYCGHGIGRGFHEEPQVLHYDSRETNVVLKPGMTFTIEPMVNAGKKEIRTMKDGWTVKTKDRSLSAQYEHTIVVTDNGCEILTLRKDDTIPAIISHDE
On to B2, for which the Specific activity (unit/mg) with MQDYLT came out at 0.43 unit/mg; in the data set with MADYLT, 138 unit/mg; with MADY, 138 unit/mg; in the data set with MADWLTFQKKHI, 85 unit/mg; with MQDWLTFQKKHI, 0.62 unit/mg.

B3: MetAP-M206T-Q233G (protein)
chain: AISIKTPEDIEKMRVAGRLAAEVLEMIEPYVKPGVSTGELDRICNDYIVNEQHAVSACLGYHGYPKSVCISINEVVCHGIPDDAKLLKDGDIVNIDVTVIKDGFHGDTSKMFIVGKPTIMGERLCRITQESLYLALRMVKPGINLREIGAAIQKFVEAEGFSVVREYCGHGIGRGFHEEPQVLHYDSRETNVVLKPGMTFTIEPTVNAGKKEIRTMKDGWTVKTKDRSLSAGYEHTIVVTDNGCEILTLRKDDTIPAIISHDE
As to B3, the Specific activity (unit/mg) with MQDYLT is 0.42 unit/mg; in the data set with MADYLT, 116 unit/mg; with MADY it was 72 unit/mg; in the data set with MADWLTFQKKHI, 73 unit/mg; in the data set with MQDWLTFQKKHI, 0.59 unit/mg.

B4: MetAP-M206G-Q233G (protein)
chain: AISIKTPEDIEKMRVAGRLAAEVLEMIEPYVKPGVSTGELDRICNDYIVNEQHAVSACLGYHGYPKSVCISINEVVCHGIPDDAKLLKDGDIVNIDVTVIKDGFHGDTSKMFIVGKPTIMGERLCRITQESLYLALRMVKPGINLREIGAAIQKFVEAEGFSVVREYCGHGIGRGFHEEPQVLHYDSRETNVVLKPGMTFTIEPGVNAGKKEIRTMKDGWTVKTKDRSLSAGYEHTIVVTDNGCEILTLRKDDTIPAIISHDE
Turning to B4, the Specific activity (unit/mg) with MQDYLT was 0.29 unit/mg; in the data set with MADYLT, 0.29 unit/mg; with MADY, 0.51 unit/mg; with MADWLTFQKKHI, 3.28 unit/mg; with MQDWLTFQKKHI, 0.5 unit/mg.

B5: MetAP-M206T-Q233T (protein)
chain: AISIKTPEDIEKMRVAGRLAAEVLEMIEPYVKPGVSTGELDRICNDYIVNEQHAVSACLGYHGYPKSVCISINEVVCHGIPDDAKLLKDGDIVNIDVTVIKDGFHGDTSKMFIVGKPTIMGERLCRITQESLYLALRMVKPGINLREIGAAIQKFVEAEGFSVVREYCGHGIGRGFHEEPQVLHYDSRETNVVLKPGMTFTIEPTVNAGKKEIRTMKDGWTVKTKDRSLSATYEHTIVVTDNGCEILTLRKDDTIPAIISHDE
For the protein B5, the values for the Specific activity (unit/mg) with MQDYLT, with MADYLT and in the data set with MADY were 0.13 unit/mg, 0.12 unit/mg and 0.38 unit/mg, respectively.
